Assay [1] relates to Muc1-GFP expressing 1E7 cells. The assay is described as follows: Removal of cell-surface mucin from 1E7 cells (confocal imaging, GFP nanobody). The note with it: 100 nM enzyme. The format is cell-based. On the procedure:
FIG. 11. StcE mucinase effectively remove cell-surface mucin on 1E7 clone and NK cell. (A) Representative confocal images of Muc1-GFP expressing 1E7 cells with and without treatment with 100 nM StcE, StcE ΔX409, or StcE-EE Zip; Alexa Fluor 647 conjugated to GFP nanobody is used to probe cell-surface Muc1-GFP constructs. (Scale bar, 10 μm). (B) Quantification of mean fluorescence intensity of Muc1-GFP and cell-surface Muc1-GFP probed with GFP nanobody in 1E7 cells treated with the indicated concentration of StcE mucinase; results are shown for induction of Muc1-GFP at 100 ng/ml and 1000 ng/ml doxycycline. (C) Cytotoxicity of NK-92 cells against 1E7 cells treated with control buffer, 100 nM StcE mucinase, or 5,000 U/mL PNGase F for 1 hour; Muc1-GFP induction is at the indicated doxycycline concentration (1,100, and 1,000 ng/ml); NK cell to target cell ratio is 5:1. (D) Flow cytometry analysis of mucin levels on NK-92 cells following incubation with control buffer or 100 nM recombinant StcE or StcE ΔX409; StcE surface level after incubation probed with anti His-tag antibody and cell-surface mucin level probed with catalytically dead StcE E447D conjugated to Cy5. Statistical significance is given by ns—not significant, *P≤0.05, **P≤0.01, ***P≤0.001, ****P≤0.0001. Results are a representative dataset from 3 independent replicates. […]

The test system of the next assay is NK-92 cell surface. The assay can be described thus: Flow cytometry of StcE surface level on NK-92 cells (anti His-tag). As to conditions: after washing with buffer; no additional molecular tether. The format is cell-based. On the procedure: Cells were plated, grown for 24 hours, and then induced with various concentrations of doxycycline for 24 hours. Adherent cells were detached by incubating with Accutase (Innovative Cell Technologies) at 37° C. for 10 minutes. GFP nanobody conjugated Alexa Fluor 647, Neutravidin conjugated DyLight 650, CF640R PNA, Alexa Fluor 647 HPA, and biotin MAL-II were diluted 1:200 in 0.5% BSA PBS and incubated with cells at 4° C. for 30 minutes for each stain. For analysis of Muc1 cell surface expression level, anti-Human Muc Clone HMPV was diluted 1:200 in 0.5% BSA PBS and incubated with cells at 4° C. (for 1 hour. Secondary labelling was with Alexa Fluor 647 conjugated goat anti-mouse, diluted 1:1000 in 0.5% BSA PBS and incubated with cells at 4° C. for 1 hour. For analysis of StcE mucinase binding to NK-92 cells, NK cells were incubated with StcE at 37° C. for 1 hour. Cells were thoroughly washed to remove StcE and coculture with target cells. Anti-6× His-tag antibody was diluted 1:100 in 0.5% BSA PBS and incubated with cells at 4° C. for 1 hour. Secondary labelling was with Alexa Fluor 647 goat anti-rabbit IgG, diluted 1:500 in 0.5% BSA PBS or FluoTag-X2 anti-AFLA conjugated with Alexa Fluor 647 was diluted 1:200 in 0.5% BSA PBS and incubated with cells at 4° C. for 1 hour. […]
For orientation: A flow cytometer gives signals particle by particle.

B1: StcE-ΔX409: StcE with a deleted C-terminal X409 lectin domain; NK cells treated with it: StcE-ΔX409 NK (protein)
chain: ADNNSAIYFNTSQPINDLQGSLAAEVKFAQSQILPAHPKEGDSQPHLTSLRKSLLLVRPVKADDKTPVQVEARDDNNKILGTLTLYPPSSLPDTIYHLDGVPEGGIDFTPHNGTKKIINTVAEVNKLSDASGSSIHSHLTNNALVEIHTANGRWVRDIYLPQGPDLEGKMVRFVSSAGYSSTVFYGDRKVTLSVGNTLLFKYVNGQWFRSGELENNRITYAQHIWSAELPAHWIVPGLNLVIKQGNLSGRLNDIKIGAPGELLLHTIDIGMLTTPRDRFDFAKDKEAHREYFQTIPVSRMIVNNYAPLHLKEVMLPTGELLTDMDPGNGGWHSGTMRQRIGKELVSHGIDNANYGLNSTAGLGENSHPYVVAQLAAHNSRGNYANGIQVHGGSGGGGIVTLDSTLGNEFSHEVGHNYGLGHYVDGFKGSVHRSAENNNSTWGWDGDKKRFIPNFYPSQTNEKSCLNNQCQEPFDGHKFGFDAMAGGSPFSAANRFTMYTPNSSAIIQRFFENKAVFDSRSSTGFSKWNADTQEMEPYEHTIDRAEQITASVNELSESKMAELMAEYAVVKVHMWNGNWTRNIYIPTASADNRGSILTINHEAGYNSYLFINGDEKVVSQGYKKSFVSDGQFWKERDVVDTREARKPEQFGVPVTTLVGYYDPEGTLSSYIYPAMYGAYGFTYSDDSQNLSDNDCQLQVDTKEGQLRFRLANHRANNTVMNKFHINVPTESQPTQATLVCNNKILDTKSLTPAPEGLTYTVN
On to B1, for which, in assay [1], the “removal / cleavage of cell-surface mucin” value was “could actively digest Muc”. In addition, the “binding and retention on the NK-92 cell surface” value in the assay on NK-92 cell surface is listed as “not retained”.

For the origin of these results see patent US20250152627A1, “COMPOSITIONS AND METHODS FOR ENHANCING IMMUNE CELL FUNCTION USING MODIFIED CELLS WITH GLYCOCALYX EDITING ENZYMES” (Cornell University, priority 2021, published 2025).
